# Assay results: paper doi:10.1101/2025.08.16.670655, “A Phosphorelay Circuit Drives Extracellular Alkalinization in Plant Receptor Kinase Signaling” (bioRxiv, 2025)
# T1: His-BIK1 (Arabidopsis thaliana, UniProt O48814 1-395)
# T1 construct: BIK1, Arabidopsis; CDS cloned into pET28a, 6xHis fusion; source: E. coli BL21 (DE3) Rosetta pLysS, purified (HisPur cobalt resin); not shown: His6, N-terminal, kept
# T1 sequence (looked up): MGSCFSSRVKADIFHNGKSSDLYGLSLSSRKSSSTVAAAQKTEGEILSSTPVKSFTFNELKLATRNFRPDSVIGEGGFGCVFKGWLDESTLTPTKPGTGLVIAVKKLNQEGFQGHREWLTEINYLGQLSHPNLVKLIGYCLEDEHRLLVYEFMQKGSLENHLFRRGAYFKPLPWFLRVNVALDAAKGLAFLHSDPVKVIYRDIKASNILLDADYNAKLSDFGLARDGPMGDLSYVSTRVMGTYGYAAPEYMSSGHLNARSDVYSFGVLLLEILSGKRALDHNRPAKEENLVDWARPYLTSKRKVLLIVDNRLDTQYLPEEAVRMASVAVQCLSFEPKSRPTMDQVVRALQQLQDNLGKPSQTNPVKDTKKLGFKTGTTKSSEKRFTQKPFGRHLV
# B1: His-MBP-GRF2 (natural protein, Arabidopsis thaliana, UniProt Q01525 1-259, looked up)
# chain: MASGREEFVYMAKLAEQAERYEEMVEFMEKVSAAVDGDELTVEERNLLSVAYKNVIGARRASWRIISSIEQKEESRGNDDHVTAIREYRSKIETELSGICDGILKLLDSRLIPAAASGDSKVFYLKMKGDYHRYLAEFKTGQERKDAAEHTLAAYKSAQDIANAELAPTHPIRLGLALNFSVFYYEILNSPDRACNLAKQAFDEAIAELDTLGEESYKDSTLIMQLLRDNLTLWTSDMQDDAADEIKEAAAPKPTEEQQ
# notes: GRF2, Arabidopsis; CDS cloned into pOPINM, 6xHis-MBP fusion; source: E. coli BL21 (DE3) Rosetta pLysS, purified (HisPur cobalt resin); not shown: His6, N-terminal, kept; MBP, N-terminal, kept
# Target: T1, His-BIK1
# Assay: pull-down; MBP pulldown of His-BIK1 by His-MBP fusion proteins; 25 mM Tris-HCl pH 7.4, 100 mM NaCl, 0.2 % Triton X-100, 1 mM DTT, 4 °C, 1-2 h
# Settings: both partners purified
binder,measurement,value
B1,binding result,binds
